Entries after “also recorded” stand apart in the source; their conditions may differ.
Legend:
HLA-A2 = HLA-A2 (Homo sapiens, UniProt P04439, D140Y/D185E/D98H/E176V/E277Q/G131W/G231S/I119V/I121R/I166T/I218V/L300P/L318F/N151K/N90K/P208A/P217A/Q86G/Q94H/R138H/R169H/T345S); details: cited from earlier work
[1] = test system: A2K^b transgenic mice (expressing human HLA-A*0201); details: cited from earlier work
[2] = Storage stability of vialed product; format: physicochemical
Experimental: Stability and Storage: KLH-HMW is stable for at least 12 months when stored at 2 to 8° C.
(§1) Stability and Storage: The finished injectable dosage forms are stored in the freezer (−70′C) for long-term storage. Intact vials are stable for at least 6 months when stored at controlled room temperature (15° C.-30° C.) or in the refrigerator (2° C.-8° C.), and for at least 36 months when stored in the freezer (−10° C. to −25° C. and −70° C.). The peptide vial contains no preservatives; once the peptide vial is entered, unused peptide solution is discarded after 3 hours.
as §1, with “(−70° C.)” for “(−70′C)”, “C.), at least 9 months when stored” for “C.) or”

human T cells = details: cited from earlier work; for recognition of peptide-pulsed targets by peptide-specific human T cells: human T cells specific for the named peptide
[3] = controlled room temperature (15° C.-30° C.)
[4] = freezer (−10° C. to −25° C. and −70° C.)

## FVFLRNFSL [TARP 27-35]
HLA-A2; HLA-A2 epitopes, fold greater than TARP 29-37
  binding affinity relative to TARP 29-37: 10 times
[1]; A2K^b transgenic mice
  level of CD8+ T cell response: higher level of CD8+ T cell response than TARP29-37
[1]; dendritic cells pulsed with the peptides or DNA encoding the peptides
  immunogenicity in A2K^b transgenic mice: immunogenic
[2]; [3]
  stability of intact vials: at least 6 months
[2]; [4]
  stability of intact vials: at least 36 months
[2]; refrigerator (2° C.-8° C.)
  stability of intact vials: at least 6 months
Human T cells
  recognition of peptide-pulsed targets by peptide-specific human T cells: recognized targets pulsed with that sequence

## FLRNFSLMV [TARP 29-37-9V]
HLA-A2; amino acid substitution versus wild-type peptide
  change of binding affinity to HLA-A2 by epitope enhancement: lower binding affinity to HLA-A2 than TARP29-37-3A; also recorded: did enhance the binding affinity compared with the wild-type peptide
[1]; A2K^b transgenic mice, versus wild type sequence
  percentage of TARP-specific CD8+ T cells: higher percentage of TARP-specific CD8^+ T cells than the wild type sequence
[2]; [3]
  stability of intact vials: at least 6 months
[2]; [4]
  stability of intact vials: at least 36 months
[2]; refrigerator (2° C.-8° C.)
  stability of intact vials: at least 9 months
Human T cells
  recognition of peptide-pulsed targets by peptide-specific human T cells: recognized targets pulsed with all three peptides equally well
Human T cells; human cells
  immunogenicity in human T cells: immunogenic

— US10286050B2 (The United States of America, as represented by the …, priority 2013, dated 2019)
